Assay results published in article PMC3623455.

Experiments:
[1] = substrate: OC[C@@H](O)[C@H](O)[C@@H](O)CO; assay: purified protein; settings: 100 mM Tris-HCl pH 8.0, 1 mM NADP+, polyol oxidation
[2] = substrate: O=C(CO)[C@H](O)[C@@H](O)CO; assay: purified protein; settings: 50 mM Tris-HCl pH 7.0, 0.5 mM NADPH, sugar reduction

B1: LXR3 (Trichoderma reesei QM6a) (protein)
chain: KNGAFPHDNAAVPNVERVLPLFSLKGRTAIVSGAGAGIGLAVAQAFAEAGANVAIWYNSNKQAVTSAEDIAKTYGVKCKAYQVNVTSAEAVDKAITEIIKEFNGRLDVFVANSGITWTEGAFIDGSVESARNVMSVNVDGVMWCAKSAGAHFRRQKEEGTTIDGKPLDNFIAGSFIATASMSGSIVNVPQLQAVYNSSKAAVIHFCKSLAVEWTGFARVNTVSPGYIITEISNFVPPETKTLWKDKIVMGREGRVGELKGAYLYLASDASSYTTGLDMIVDGGYSLP
kcat [1]: 1 s⁻¹
kcat [2]: 11.4 s⁻¹
